In IntAct's records for PubMed 23435566:

B1: Rab-3A-interacting protein (Rattus norvegicus (Rat)), Q62739 (parent)
chain: MANDPLEGFHEVNLASPTSPDLLGVCDPGTQEQTTSPSVIYRPHPSTLCSATIQANALNLSDLPTQPVYSSPRHLNCAEISNISIHVPEPASSVASEVAAGLTRFTSRKDSCNAEREFLQGATVTEASAGNDDIFGLSTDSLSRLRSPSVLEVREKGYERLKEELAKAQRELKLKDEECERLSKVRDQLGQELEELTASLFEEAHKMVREANVKQATAEKQLKEAQGKIDVLQAEVAALKTLVLSSSPTSPTQEPLAAGKTPFKRGHTRNKSTSSAMSGSHQDFSAIQPIVKDCREADLSLYNEFRSWKDEPTMDRTCPFLDKIYQEDIFPCLTFAKSELASAVLEAVENNTLSIEPVGLQPIRFVKASAVECGGPKKCALTGQSKPCKHRIKLGDSSSYYYISPVCRYRITSVCNFFTYIRYIQQGLVKQQDVDQMFWEVMQLRKEMSLAKLGYFKEEL
B2: Rab-3A-interacting protein (Rattus norvegicus (Rat)), Q62739 (parent)
chain: B1 chain
partner: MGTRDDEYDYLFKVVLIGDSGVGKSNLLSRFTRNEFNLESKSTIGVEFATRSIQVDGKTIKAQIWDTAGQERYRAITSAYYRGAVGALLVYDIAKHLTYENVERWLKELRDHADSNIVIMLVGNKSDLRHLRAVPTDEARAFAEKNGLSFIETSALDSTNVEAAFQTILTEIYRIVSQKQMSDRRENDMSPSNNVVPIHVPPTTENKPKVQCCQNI

Variants of: B1
Conditions: with exoc6_mouse Exoc6, Q8R313
Chain of exoc6_mouse Exoc6, Q8R313 (Q8R313 whole entry): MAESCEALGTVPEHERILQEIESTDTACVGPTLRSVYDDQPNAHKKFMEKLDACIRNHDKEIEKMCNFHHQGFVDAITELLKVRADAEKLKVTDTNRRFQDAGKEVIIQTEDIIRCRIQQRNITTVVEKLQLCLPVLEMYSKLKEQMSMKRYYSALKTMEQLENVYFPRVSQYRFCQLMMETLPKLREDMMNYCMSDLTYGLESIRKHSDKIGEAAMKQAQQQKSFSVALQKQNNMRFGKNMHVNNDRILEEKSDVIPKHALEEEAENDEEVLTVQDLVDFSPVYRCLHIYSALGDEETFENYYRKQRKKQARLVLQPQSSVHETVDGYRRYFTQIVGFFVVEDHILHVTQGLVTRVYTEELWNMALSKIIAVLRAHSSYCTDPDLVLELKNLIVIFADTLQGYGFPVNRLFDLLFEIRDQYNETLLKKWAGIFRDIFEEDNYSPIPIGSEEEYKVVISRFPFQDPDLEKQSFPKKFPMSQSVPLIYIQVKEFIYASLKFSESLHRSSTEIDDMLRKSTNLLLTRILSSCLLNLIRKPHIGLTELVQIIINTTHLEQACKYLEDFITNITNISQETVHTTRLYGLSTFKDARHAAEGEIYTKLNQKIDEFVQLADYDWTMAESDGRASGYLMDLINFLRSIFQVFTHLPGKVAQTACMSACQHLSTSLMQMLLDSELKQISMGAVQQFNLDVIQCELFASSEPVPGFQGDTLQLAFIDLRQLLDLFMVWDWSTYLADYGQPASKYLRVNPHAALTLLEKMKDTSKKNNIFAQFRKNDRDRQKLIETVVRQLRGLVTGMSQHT

effect of a mutation on the interaction | Variant
increasing interaction | MANDPLEGFHEVNLASPTSPDLLGVCDPGTQEQTTSPSVIYRPHPSTLCSATIQANALNLSDLPTQPVYSSPRHLNCAEISNISIHVPEPASSVASEVAAGLTRFTSRKDSCNAEREFLQGATVTEASAGNDDIFGLSTDSLSRLRSPSVLEVREKGYERLKEELAKAQRELKLKDEECERLSKVRDQLGQELEELTASLFEEAHKMVREANVKQATAEKQLKEAQGKIDVLQAEVAALKTLVLSSSPTSPTQEPLAAGKTPFKRGHTRNKSTSSAMSGSHQDFSAIQPIVKDCREADLSLYNEFRSWKDEPTMDRTCPFLDKIYQEDSFPCLTFAKSELASAVLEAVENNTLSIEPVGLQPIRFVKASAVECGGPKKCALTGQSKPCKHRIKLGDSSSYYYISPVCRYRITSVCNFFTYIRYIQQGLVKQQDVDQMFWEVMQLRKEMSLAKLGYFKEEL [I329S]

Variants of: B1
Conditions: with exoc6_mouse Exoc6, Q8R313
Remark: another data set of the same source

effect of a mutation on the interaction | Variant
disrupting interaction | MANDPLEGFHEVNLASPTSPDLLGVCDPGTQEQTTSPSVIYRPHPSTLCSATIQANALNLSDLPTQPVYSSPRHLNCAEISNISIHVPEPASSVASEVAAGLTRFTSRKDSCNAEREFLQGATVTEASAGNDDIFGLSTDSLSRLRSPSVLEVREKGYERLKEELAKAQRELKLKDEECERLSKVRDQLGQELEELTASLFEEAHKMVREANVKQATAEKQLKEAQGKIDVLQAEVAALKTLVLSSSPTSPTQEPLAAGKTPFKRGHTRNKATSSAMSGSHQDFSAIQPIVKDCREADLSLYNEFRSWKDEPTMDRTCPFLDKIYQEDIFPCLTFAKSELASAVLEAVENNTLSIEPVGLQPIRFVKASAVECGGPKKCALTGQSKPCKHRIKLGDSSSYYYISPVCRYRITSVCNFFTYIRYIQQGLVKQQDVDQMFWEVMQLRKEMSLAKLGYFKEEL [S272A]

Variants of: B2
Conditions: with rb11a_mouse Rab11a

effect of a mutation on the interaction | Variant
disrupting interaction | MANDPLEGFHEVNLASPTSPDLLGVCDPGTQEQTTSPSVIYRPHPSTLCSATIQANALNLSDLPTQPVYSSPRHLNCAEISNISIHVPEPASSVASEVAAGLTRFTSRKDSCNAEREFLQGATVTEASAGNDDIFGLSTDSLSRLRSPSVLEVREKGYERLKEELAKAQRELKLKDEECERLSKVRDQLGQELEELTASLFEEAHKMVREANVKQATAEKQLKEAQGKIDVLQAEVAALKTLVLSSSPTSPTQEPLAAGKTPFKRGHTRNKSTSSAMSGSHQDFSAIQPIVKDCREADLSLYNEFRSWKDEPTMDRTCPFLDKIYQEDSFPCLTFAKSELASAVLEAVENNTLSIEPVGLQPIRFVKASAVECGGPKKCALTGQSKPCKHRIKLGDSSSYYYISPVCRYRITSVCNFFTYIRYIQQGLVKQQDVDQMFWEVMQLRKEMSLAKLGYFKEEL [I329S]

Variants of: B2
Conditions: with rb11a_mouse Rab11a
Remark: another data set of the same source

effect of a mutation on the interaction | Variant
increasing interaction | MANDPLEGFHEVNLASPTSPDLLGVCDPGTQEQTTSPSVIYRPHPSTLCSATIQANALNLSDLPTQPVYSSPRHLNCAEISNISIHVPEPASSVASEVAAGLTRFTSRKDSCNAEREFLQGATVTEASAGNDDIFGLSTDSLSRLRSPSVLEVREKGYERLKEELAKAQRELKLKDEECERLSKVRDQLGQELEELTASLFEEAHKMVREANVKQATAEKQLKEAQGKIDVLQAEVAALKTLVLSSSPTSPTQEPLAAGKTPFKRGHTRNKATSSAMSGSHQDFSAIQPIVKDCREADLSLYNEFRSWKDEPTMDRTCPFLDKIYQEDIFPCLTFAKSELASAVLEAVENNTLSIEPVGLQPIRFVKASAVECGGPKKCALTGQSKPCKHRIKLGDSSSYYYISPVCRYRITSVCNFFTYIRYIQQGLVKQQDVDQMFWEVMQLRKEMSLAKLGYFKEEL [S272A]
